The series is described as follows: protein stability index of a GFP-peptide fusion (GPS, HEK-293T) (PSI 1-6); higher = more stable.
[1] abbreviates: treatment: DMSO, c terminus: a fixed tail appended.
Setting [2] is: treatment: MLN4924 1 uM, 8 h, c terminus: a fixed tail appended.
[3] abbreviates: treatment: DMSO, c terminus: native.
Where [4] appears, read: treatment: MLN4924 1 uM, 8 h, c terminus: native.

± gives the standard deviation.
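Also: 24-mer peptide tiles fused after GFP, lentivirally expressed, FACS-sorted into six equal bins by GFP/DsRed ratio, decoded by Illumina sequencing, PSI is the read-weighted mean bin number.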

In the case of CPECYPDNPANRSLVLPWSFPLEW [TOR1AIP2], the protein stability index is 2.5 ± 0.28 under setting [1] and 2.77 ± 0.24 under setting [2].
The matching figures for CQRSRYRDSLTQPDEEPMHYGNIM [RSPH3]: 3.37 ± 0.39 and 3.45 ± 0.3.
For CRDLVDEAKNYLLLPQERPLMQGP [KLHL20] the same measures were 2.65 ± 0.33 and 2.75 ± 0.12.
For CRSKTLGYQHVDLQNFSSSWSDGM [SMTNL2] the same measures were 2.47 ± 0.079 and 2.41 ± 0.27.
CSRFFIDFPDILEQQRKLETYLQN [TENT5C]: the protein stability index reads like this: under setting [1], 2.17 ± 0.22; under setting [2], 2.24 ± 0.12.
For CSRPSGSSSSSGVLMVGPNFRVGK [CSNK1G1], the protein stability index reads like this: under setting [1], 3.63 ± 0.47; under setting [2], 3.74 ± 0.62.
The matching figures for CTAKCGERSVVTRDIRCSEDEKLC [ADAMTSL2]: 4.63 ± 0.38 and 4.61 ± 0.18.
For CTDCGKSFNHNAHLTVHKRIHTGE [ZNF8] the same measures were 4.54 ± 0.21 and 4.41 ± 0.21.
In the case of CTSVNTIYDNAVQGLRRHEILQWV [LRRC59], the protein stability index is 2.3 ± 0.17 under setting [1] and 2.13 ± 0.2 under setting [2].
For the sequence CTVLRDARIRSHSWLESCIVGWRC [GMPPB], the protein stability index turned out to be 2.42 ± 0.39 under setting [1] and 1.93 ± 0.43 under setting [2].
With CVLVDTGRPIPGTSTRYEQPKCDN [SMOC2], the protein stability index runs as follows: under setting [1], 3.79 ± 0.31; under setting [2], 3.77 ± 0.22.
The matching figures for CVSIPDVVGWFVLFYKPGIVLLLA [GULP1]: 2.63 ± 0.55 and 3.09 ± 0.066.
For the sequence CWKMLSPGFDSSVYSDLCEAAEAV [ADAMTSL2], the protein stability index is, setting by setting: under setting [1], 2.69 ± 0.34; under setting [2], 3.16 ± 0.71.
The matching figures for DAALLEMENNHTVAITILQDDHDH [MTUS2]: 4.98 ± 0.21 and 4.92 ± 0.065.
The matching figures for DAGGWVLIDRSGRHFGTILNYLRD [KCTD13]: 2.33 ± 0.25 and 2.08 ± 0.42.
In the case of DCPMDSSSSRDTDWVVVKEPVIKV [PI4K2A], the protein stability index runs as follows: under setting [1], 3.6 ± 0.4; under setting [2], 4 ± 0.53.
For DDGYSTKDSYSSRDYPSSRDTRDY [RBMX] the same measures were 4.9 ± 0.25 and 4.77 ± 0.081.
The matching figures for DEDDEDEDEDEDEDEDEDKEEEEE [TAF7L]: 5.46 ± 0.4 and 5.51 ± 0.1.
Consider DEEKKARRGRSPKGEFKDEEETVT [CLINT1], for which the protein stability index stood at 5.43 ± 0.28 under setting [1] and 5.57 ± 0.14 under setting [2].
In the case of DEKDRIITAFYNEARARARANRGI [DNAJC4], the protein stability index amounted to 4 ± 0.35 under setting [1] and 4.16 ± 0.17 under setting [2].
For DEKQRDPRIEASKVLLCHGELRSK [NET1] the same measures were 4.42 ± 0.21 and 4.63 ± 0.22.
On to DETLRSGELLNMIVAVIDSAQLQE [INTS3], for which the protein stability index is, setting by setting: under setting [1], 2.84 ± 0.18; under setting [2], 3.06 ± 0.39.
For DFGLAARLEPLEHRRRTICGTPNY [PLK2] the same measures were 3.17 ± 0.28 and 3.13 ± 0.21.
For DFKDFYPAIADLFAESLQCKVDCE [P3H4] the same measures were 2.84 ± 0.4 and 3.16 ± 0.62.
Under setting [1], DFLAEKESLTEDEATQFLKQILDG [DAPK3] yielded a protein stability index of 4.4 ± 0.55.
In the case of DFMELGRSIPDTQLEQVIESQKAN [ACSBG2], the protein stability index was determined as 5.16 ± 0.26 under setting [1] and 4.99 ± 0.26 under setting [2].
In turn, DFRVKYETELAMRQSVENDIHGLR [KRT18] registered a protein stability index under setting [1] of 3.56 ± 0.2 and a protein stability index under setting [2] of 3.68 ± 0.1.
The matching figures for DFYEAMDDYTSAIEVQPNFEVPYY [TTC32]: 2.64 ± 0.23 and 2.84 ± 0.3.
For DGGALLGVLQYRGAELHLQPLEGG [ADAMTS4] the same measures were 2.06 ± 0.94 and 2.52 ± 0.73.
The matching figures for DGLDGISVGSYLDTLADDVPGHQT [LURAP1L]: 5.12 ± 0.27 and 4.86 ± 0.22.
Regarding DGNKIFLCHCGKAFSHKSMRDRHV [ZBTB22], the protein stability index is, setting by setting: under setting [1], 2.39 ± 0.4; under setting [2], 2.61 ± 0.56.
The matching figures for DILEVKRLLDHQDNILSLINVNDL [WDR41]: 2.24 ± 0.4 and 2.22 ± 0.25.
For DILVLLGASLYAISNVCEEYIVKK [SLC35F2] the same measures were 3.41 ± 0.61 and 2.89 ± 0.47.
For DIRYLLGYVSQQGGQRSTPLIIAA [FEM1B] the same measures were 2.5 ± 0.41 and 2.62 ± 0.21.
Regarding DLGEGKICFCCEEFQPAKCTDKEN [FAM189A2], the protein stability index under setting [1] stood at 4.24 ± 0.34 and the protein stability index under setting [2] stood at 4.07 ± 0.085.
With DLKPENIMLLDKNVPNPRIKLIDF [DAPK3], the protein stability index runs as follows: under setting [1], 2.79 ± 0.084; under setting [2], 2.93 ± 0.21.
The matching figures for DLMETTQYMNEGELRVLADTYDSV [HDAC6]: 2.69 ± 0.52 and 3.58 ± 0.51.
For DLVAMQWADAAGEAVPEGPDGGGP [ZSWIM9] the same measures were 4.99 ± 0.33 and 5.17 ± 0.12.
In the case of DLVPKQAIQVQEADEAGWGGSGG [DLX1], the protein stability index reads like this: under setting [3], 2.96 ± 0.75; under setting [4], 3.09 ± 0.087.
For DMTFEEEAQLLQLKVKCLNNLAAS [FKBP8], the protein stability index under setting [1] came to 3.42 ± 0.27 and the protein stability index under setting [2] is 3.54 ± 0.46.
The matching figures for DMWSLGCILVEMHTGEPLFSGSNE [DYRK1B]: 1.97 ± 0.33 and 2.15 ± 0.23.
On to DNAVQGLRRHEILQWVLQTDSQQ [LRRC59], for which the protein stability index was 3.37 ± 0.2 under setting [3] and 3.44 ± 0.24 under setting [4].
With DNIVNCNEFLCTLQKKLDNLQCLY [ZNF277], the protein stability index stood at 2.36 ± 0.39 under setting [1] and 2.07 ± 0.43 under setting [2].
For DPNTRPVGEKNCTGPPCDRQWTVS [ADAMTSL2] the same measures were 4.89 ± 0.15 and 4.86 ± 0.32.
For DPSNRSFFSEIISSVSDVKFSHSG [PPP2R2C] the same measures were 3.43 ± 0.25 and 3.44 ± 0.29.
Take DQEGLQRITGLSPGRSALIVAVLC [SPNS1]: the protein stability index under setting [1] was determined as 2.31 ± 0.46 and the protein stability index under setting [2] is 2.27 ± 0.35.
The matching figures for DQKVPYIFRDNQWVGFDDVESFKT [CHIT1]: 3.67 ± 0.18 and 3.53 ± 0.28.
The matching figures for DRAPAEQVPRSPVIKISYSTPQGK [PWWP2B]: 4.44 ± 0.29 and 4.52 ± 0.3.
For DRLQVFHKRAIMPYGVYKKQQKDP [ATE1] the same measures were 3.17 ± 0.39 and 3.34 ± 0.22.
Regarding DRLRINRFAWPKVLKISYKRNNFY [EPB41L3], the protein stability index reads like this: under setting [1], 1.81 ± 0.57; under setting [2], 1.69 ± 0.4.
DRTAIRSDTTHLVTLGGVLRQQLV [KLHL13] gave a protein stability index under setting [1] of 2.61 ± 0.28 and a protein stability index under setting [2] of 2.73 ± 0.22.
The matching figures for DRVQVERDGLAEDLAALKQRLEEE [PRPH]: 5.49 ± 0.16 and 5.17 ± 0.25.
The matching figures for DSKSGGSGSESDHTTRSSLRGPRE [DVL3]: 5.31 ± 0.27 and 5.19 ± 0.22.

The record behind these values is the supplement of paper PMC10567573.
